B1: 1-deoxy-D-xylulose 5-phosphate reductoisomerase (KpIspC) (Klebsiella pneumoniae subsp. pneumoniae MGH 78578) (protein)
chain: MKQLTVLGSTGSIGCSTLDVVRHNPGRFSVAALVAGKNVDRMVEQCLEFTPRYAVMDDAQSAERLRTRLHEHGSRTEVLSGQQAAAEVAALDEVDQVMAAIVGAAGLVPTLAAIRAGKTVLLANKESLVTCGRLFMEAVQQSGARLLPVDSEHNAIFQSMPETIQQHLGYADLAQNGVSSILLTGSGGPFRETAVAELAAMTPDQACRHPNWSMGRKISVDSATMMNKGLEYIEARWLFNASAQQMEVLIHPQSVIHSMVRYQDGSVLAQLGEPDMRTPIAHTMGWPQRLNSGVKPLDFCQLSNLSFSAPDYTRYPCLKLAMDAFDVGQAATTTLNAANEESVAAFLHGDIRFTDIAAVNLAVLDKMDLQEPQSIDDVLVIDAEARAIAHQQLQRLVAQA
B2: 1-deoxy-D-xylulose 5-phosphate reductoisomerase (AbIspC) (Acinetobacter baumannii AB307-0294) (protein)
chain: MTQSVCILGVTGSIGRSTLKILGQHPDKYSVFAVSAHSRISELVEICKQFRPKVVVVPEQKIAELKTLFAQQNISDIDVLAGQEGLVDIASHTDVDIVMAAIVGAAGLLPTLAAVKAGKRVLLANKEALVMSGEIMMQAARDHQALLLPVDSEHNAIFQSLPHNYLQADRTGQPQLGVSKILLTASGGPFLNHSLEQLVHVTPQQACKHPNWSMGQKISVDSATLMNKGLELIEACHLFSISEHFVTVVVHPQSIIHSMVQYVDGSTLAQMGNPDMCTPIAHALAWPERLQTNVPALDLFEYSQLNFQAPDTQKFPALNLARQAMRAGGLAPTILNAANEIAVEAFLMERIGFTSIPQVVEHTLEKLENAAAESIECILDKDKVARSVAQQYISSIGG

Tests used:
[1] = substrate: CC(=O)[C@@H](O)[C@H](O)COP(=O)(O)O; test: purified protein; assay type: biochemical, Klebsiella pneumoniae; details: NADPH, Mg2+
[2] = substrate: CC(=O)[C@@H](O)[C@H](O)COP(=O)(O)O; test: purified protein; assay type: biochemical, Acinetobacter baumannii; details: NADPH, Mg2+

Protein | Km [1] [µM] | kcat [1] [s⁻¹] | Km [2] [µM] | kcat [2] [s⁻¹]
B1 | 155.5 | 2.21 ± 0.06 |  | 
B2 |  |  | 127.6 | 1.92 ± 0.03
